Patent US6602687B1, “DNA encoding human ciliary neurotrophic factor and method for producing the protein encoded thereby” (Regeneron Pharmaceuticals, Inc., priority 1989, dated 2003)

Test system: Ventral spinal cord neurons
Assay: Choline acetyltransferase (CAT) activity in ventral spinal cord cultures
Format: cell-based, rat
Description: Sprague-Dawley rats (HSD or Zivic-Miller) were used for all experiments. Pregnant rats (E14) were sacrificed as described in 10.1.1.
Spinal cords were removed aseptically from rat embryos as described in 10.1.2. The cord tissues were minced into small pieces and incubated in 0.1% trypsin (GIBCO) and 0.01% deoxyribonuclease type 1 (Sigma) at 37° C. for 20 minutes. Trypsin solution was then removed, rinsed and replaced with medium consisting of 45% Eagle's minimum essential medium (MEM), 45% Ham's nutrient mixture F12 (F12), 5% fetal calf serum (GIBCO), 5% horse serum (GIBCO) glutamine (2 mM), penicillin G (0.5 U/ml), and streptomycin (0.5 ug/ml). This was then mechanically dissociated twice by gentle trituration through a Pasteur pipet in the same medium, and the supernatants were pooled and filtered through a nylon filter (Nitex, Tetko; 40 um). Total cell number yielded was determined by hemocytometer counting in the presence of trypan blue. Dissociated ventral cells were then plated at a density of approximately 50,000 cells/cm^2 on dishes coated with poly-L-ornithine (10 ug/ml) and laminin (5 ug/ml). Treatments were given on the day of plating, except for delayed addition experiments in which treatments were given on days 2 or 6. Cultures were maintained at 37° C. in 95% air/5% CO2 atmosphere at nearly 100% relative humidity. Culture medium was changed every 3 to 4 days. A mitotic inhibitor, cytosine arabinoside (Ara C; 0.5 uM), was added on day 2 to reduce the number of nonneuronal cells. On day 7, cells were harvested for measurements of choline acetyltransferase (CAT; Fonnum, 1975 J. Neurochem. 24:407-409) and protein (Bradford, 1976, Annal. Biochem. 72:248-254) levels or fixed in 4% paraformaldehyde for NF assay (Doherty et al., 1984, J. Neurochem. 42:1116-1122) and immunocytochemistry. Some cultures were grown in defined medium consisting of 50% F12 and 50% MEM, glutamine (2 mM), insulin (5 ug/ml), transferrin (100 ug/ml), progesterone (20 nM), putrescine (10 uM), and sodium selenite (30 nM) (Bottenstein and Sato, 1979, PNAS 76:514-517). In these cultures sera-containing medium was replaced with defined medium on day 1.
Cultures were harvested by lysing the cells in a 20 mM Tris-HCl (pH 8.6) solution containing 0.1% Triton X-100. Two microliters of the cell lysate was removed and assayed for CAT activity according to the micro-Fonnum procedure (Fonnum, 1975, J. Neurochem. 24:407-409). The final substrate composition consisted of 0.2 mM [1-^14C] Acetyl-CoA (NEN, 54.4 mCi/mmol), 300 mM NaCl, 8 mM choline bromide, 20 mM EDTA, and 0.1 mM neostigmine in 50 mM NaH2PO4 (pH 7.4) buffer. At these enzyme and substrate concentrations, the enzymatic reaction was linear for 90-120 minutes. The specificity of the induction for CAT was tested by the addition of a specific inhibitor of CAT activity, N-hydroxyethyl-4-(1-napthylvinyl) pyridium (HNP), during the assay (White and Cavallito, 1970, J. Neurochem. 17:1579-1589).

B1: CNTF: ciliary neurotrophic factor; recombinant rat CNTF in Sections 10, 15, 17, purified rat sciatic nerve CNTF in Section 11; see endpoint conditions (protein, UniProt P20294 1-200, looked up)
Ciliary neurotrophic factor: MAFAEQTPLTLHRRDLCSRSIWLARKIRSDLTALMESYVKHQGLNKNINLDSVDGVPVASTDRWSEMTEAERLQENLQAYRTFQGMLTKLLEDQRVHFTPTEGDFHQAIHTLMLQVSAFAYQLEELMVLLEQKIPENEADGMPATVGDGGLFEKKLWGLKVLQELSQWTVRSIHDLRVISSHQMGISALESHYGAKDKQM
With B1 the “time after treatment at which increase in CAT activity was apparent” value was 3 days, the “effect on CAT activity with glia reduced to about 5% of total cells” value (AraC 0.5 uM or serum-free medium, CNTF 10 ng/ml) was “remained unchanged” and the “increase in CAT activity over the increase in number of cholinergic neurons” value (CNTF 10 ng/ml) was 1.6 fold. The “increase in CAT activity, delayed addition at day 2” value (CNTF 10 ng/ml added on day 2, treated 7 further days) was 1.2 fold, the “effect on CAT activity, delayed addition at day 6” value (CNTF 10 ng/ml added on day 6, treated 7 further days) was “can no longer influence CAT activity” and the “increase in CAT activity” value (CNTF 10 ng/ml, NGF 50 ng/ml, FGF 50 ng/ml at plating, after 7 days in culture) was 4.0 fold. The “CNTF concentration of maximal response in CAT activity” value (day 7) was 1 ng/mL.
